B3: pyroglutamylated RFamide Peptide Receptor (QRFPR) (receptor)
chain: MQALNITPEQFSRLLRDHNLTREQFIALYRLRPLVYTPELPGRAKLALVLTGVLIFALALFGNALVFYVVTRSKAMRTVTNIFICSLALSDLLITFFCIPVTMLQNISDNWLGGAFICKMVPFVQSTAVVTEILTMTCIAVERHQGLVHPFKMKWQYTNRRAFTMLGVVWLVAVIVGSPMWHVQQLEIKYDFLYEKEHICCLEEWTSPVHQKIYTTFILVILFLLPLMVMLILYSKIGYELWIKKRVGDGSVLRTIHGKEMSKIARKKKRAVIMMVTVVALFAVCWAPFHVVHMMIEYSNFEKEYDDVTIKMIFAIVQIIGFSNSICNPIVYAFMNENFKKNVLSAVCYCIVNKTFSPAQRHGNSGITMMRKKAKFSLRENPVEETKGEAFSDGNIEVKLCEQTEEKKKLKRHLALFRSELAENSPLDSGH
notes: Endogenous receptor of MCF-7 / U2OS cells and human tissues; also called GPR103; orexigenic neuropeptide QRFP receptor

Assays:
GDF15 = molecular target: T1, GDF15 (Homo sapiens, UniProt Q99988); assay: GST-pulldowns of GDF15 with GST-fusion QRFPR and CLPTM1 fragments; assay type: binding; conditions: equal amounts of GST-fusion protein and GDF15, 4 hrs at 4° C., extensive washes incl. high salt; FIG. 8B
T1 construct: purchased Abcam
T1 sequence (Q99988 197-308 limits assumed): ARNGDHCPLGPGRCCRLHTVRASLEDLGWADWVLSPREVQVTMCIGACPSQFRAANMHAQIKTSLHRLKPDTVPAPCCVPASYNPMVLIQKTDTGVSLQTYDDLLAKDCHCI
Protocol: We then assembled the GDF15 binding motifs from QRFPR and CLPTM1 using synthetic hybridized oligonucleotides corresponding to the motifs from either extracellular domain 3, 4 (QRFPR) or CLPTM1. The oligonucleotides were inserted in a pGEX4T1 backbone, expressed in BL21 DE3pLys bacteria and purified. The correct sequences were confirmed by Sanger sequencing.
We then incubated the purified GST-fusion proteins with equal amounts of GDF15 and subjected the analytes to extensive washes including high salt buffers.
In short, selected fragments of the receptors were constructed from synthetic oligomers (ultramers, IDT technologies), the flanking ends digested by restriction enzymes, and inserted in a pGEX 4T-1 vector (Pharmacia Biotech). The constructs were cloned in a DH5 a library efficiency bacteria (Invitrogen). The correct clones were identified by analytical restriction digest run on a 2% agarose gel, and validated by Sanger sequencing at the Uppsala sequencing centre.
The validated clones were used to transform BL21pLYs bacteria. […]
The material was denatured by boiling in SDS loading dye supplemented with DDT for 5 min, then run on a 12% acrylamide gel (120 V for 70 min) and analysed by ECL and CCD camera (Biorad). […]

QRFPR [1] = assay: In situ PLA detection of RAB11-QRFPR double positive endosomes in MCF7 cells; assay type: cell-based; conditions: MCF7 cells; GDF15 pre-incubated with receptor fragment; FIG. 9A-D
Excerpt: The RAB11 protein is a marker for recycling endosomes back to the cell surface, and the RAB11 pathway is also involved in exosome assembly (Savina et al., 2005; Savina et al., 2002). RAB11 was thus thought to be a likely candidate to be involved in QRFPR reduction on the cell surface induced by GDF15
An in situ PLA assay was developed to detect the proximity of RAB11 and QRFPR. In the absence of GDF15, only a low signal is observed (FIGS. 5A and 5C).
(§1) We choose to use this assay as a way to investigate if the activity of GDF15 could be inhibited by various agents. […] GDF15-induced formation of RAB11/QRFPR endosomes is inhibited by QRFPR peptides (FIG. 9A-D). Equal amounts of a mastermix of GDF15 was aliquoted and pre-incubated in PBS with the various receptor fragment before addition to cells. Sequentially, the cells were treated with either PBS, GDF15 or GDF15/QRFPR-derived peptide mixes.

QRFPR [2] = assay: In situ PLA detection of QRFPR at the cell surface in U2OS osteosarcoma cells; assay type: cell-based; conditions: U2OS osteosarcoma cells; GDF15 + peptide; FIG. 9E
Excerpt: A-D) In situ PLA detection of the Rab11-QRFPR complex following exposure of MCF7 cells to GDF15. A) +Ctrl peptide. B) +QRFPR extracellular N-terminal peptide. C-D) +QRFPR extracellular loop3 (domain 4) peptide. The level of the Rab11-QRFPR complex is reduced by the peptide from extracellular loop3 of QRFPR. E) in situ PLA detection of QRFPR in U2OS osteosarcoma cells.
as §1

QRFPR [3] = assay: In situ detection of QRFPR at the cell surface after GDF15 with or without peptide (FIG. 10A-C); assay type: cell-based; conditions: cells exposed to GDF15 + synthetic peptide
Excerpt: (§2) A-C) In situ detection of QRFPR at the cell surface. A) Negative control cells with no added GDF15. B) Cells after exposure to GDF15. C) Cells after exposure to GDF15+ synthetic peptide GEKEYDDVTIK derived from extracellular domain 4 of QRFPR. […] D-F) In situ PLA detection of ACTRIIB at the cell surface. D) Control cells with no added P518. E) Cells after exposure to P518. F) Cells after exposure to P518+ synthetic peptide GEKEYDDVTIK derived from extracellular domain 4 of QRFPR in 125 molar excess. The ability of P518 to increase the level of ACTRIIB at the cell surface was not affected by the peptide.
FIGS. 10A-10C confirm that GDF15 reduces the level of QRFPR at the cell surface, and that this reduction may be reversed by a peptide derived from extracellular loop 3 (extracellular domain 4) of QRFPR.

QRFPR [4] = molecular target: T2, QRFPR (Homo sapiens, UniProt Q96P65); assay: ACTRIIB assay: in situ PLA detection of ACTRIIB at the cell surface after QRFPR agonist P518; assay type: cell-based; conditions: P518 + peptide in 125 molar excess, FIG. 10D-F
T2 construct: endogenous in cells
T2 sequence (Q96P65 1-431): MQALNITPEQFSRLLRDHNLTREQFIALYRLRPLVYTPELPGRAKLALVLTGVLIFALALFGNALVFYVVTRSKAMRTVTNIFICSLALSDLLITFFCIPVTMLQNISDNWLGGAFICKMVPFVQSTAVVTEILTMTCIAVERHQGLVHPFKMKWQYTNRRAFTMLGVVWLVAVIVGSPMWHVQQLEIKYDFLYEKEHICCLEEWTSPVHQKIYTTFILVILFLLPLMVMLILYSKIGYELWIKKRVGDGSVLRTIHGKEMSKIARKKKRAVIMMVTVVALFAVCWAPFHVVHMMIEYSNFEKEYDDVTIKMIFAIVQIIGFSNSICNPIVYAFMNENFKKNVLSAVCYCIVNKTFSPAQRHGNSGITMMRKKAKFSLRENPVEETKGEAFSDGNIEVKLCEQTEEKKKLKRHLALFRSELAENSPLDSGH
Excerpt: as §2
The effect of the QRFPR agonist p518 was measured. In short, p518/QRFP-26 was purchased from Phoenix Peptides, CA and processed according to the manufacturer's instructions. Cells were serum-starved prior to P518 stimulation overnight.
P518 was mixed with either PBS or QRFPR receptor fragment dissolved in PBS prior to stimulation of cells.

[5] = molecular target: T3, Growth and differentiation factor 15 (GDF15) (UniProt Q99988 197-308, limits assumed); assay: Fc-fusion pull-down, said to agree with the array results
T3 construct: Purchased GDF15 added to cells, pull-downs, peptide arrays and ELISA; also called MIC1
T3 sequence (looked up): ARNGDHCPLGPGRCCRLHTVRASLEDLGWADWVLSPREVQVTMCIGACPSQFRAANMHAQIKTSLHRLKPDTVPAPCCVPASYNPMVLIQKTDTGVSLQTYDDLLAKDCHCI
Protocol: 20 μg Fc fusion protein constructs were incubated with 0.5 μg GDF15 and protein-G bead with mixing for 6 hrs in +4 C in PBST+1% BSAs. Wash 6 times: 3 times PBST, change tubes, 2 washes PBST+220 mM NaCl. Last wash PBS. The beads were collected using a table-top centrifuge set at 500 g for 5 minutes between washes. Detection The material was loaded on a 4-12% gradient gel, run at 100 volt, transferred to PVDF membrane using a Turbo Tank blot system, blocked by PBS with 3% BSA 1 hr RT, and incubated with RD systems a monoclonal anti-GDF15 antibody overnight. A secondary antibody: mouse HRP 1:2000 was used for detection. The size of band was estimated by comparing with a seeblue2 protein ladder marker run in an adjacent lane.

[6] = molecular target: B3; assay: in situ PLA on tissue micro array
[7] = molecular target: T4, Cleft Lip and Palate Transmembrane protein 1 (CLPTM1) (human, UniProt O96005 2-669); assay: in situ PLA on tissue micro array
T4 construct: Endogenous receptor of NK-92 cells, CD14+ cells and human tissues
T4 sequence: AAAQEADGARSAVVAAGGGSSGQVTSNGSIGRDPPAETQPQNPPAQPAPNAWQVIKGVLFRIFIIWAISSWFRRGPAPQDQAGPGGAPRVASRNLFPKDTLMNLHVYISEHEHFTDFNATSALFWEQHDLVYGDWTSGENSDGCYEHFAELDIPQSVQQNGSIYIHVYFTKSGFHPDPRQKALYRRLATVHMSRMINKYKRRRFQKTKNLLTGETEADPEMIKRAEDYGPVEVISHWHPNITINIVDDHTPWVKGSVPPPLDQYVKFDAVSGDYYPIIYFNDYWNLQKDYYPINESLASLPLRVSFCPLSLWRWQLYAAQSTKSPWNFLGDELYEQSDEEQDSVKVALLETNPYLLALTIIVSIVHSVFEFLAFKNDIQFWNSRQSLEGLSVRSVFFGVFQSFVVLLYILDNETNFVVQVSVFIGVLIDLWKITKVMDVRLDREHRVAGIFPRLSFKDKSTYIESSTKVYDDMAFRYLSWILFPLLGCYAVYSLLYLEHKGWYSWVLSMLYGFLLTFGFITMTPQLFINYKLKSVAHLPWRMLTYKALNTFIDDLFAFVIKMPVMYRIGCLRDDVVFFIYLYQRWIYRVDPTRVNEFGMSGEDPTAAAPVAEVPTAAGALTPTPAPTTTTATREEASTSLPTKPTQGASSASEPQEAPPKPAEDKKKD

ACTRIIB = molecular target: T5, ACTRIIB (UniProt Q13705 19-512, limits assumed); assay: in situ PLA on serum-starved MCF7 cells
T5 construct: whole, on cells; also called activin type II receptor B
T5 sequence (Q13705 19-512 limits assumed): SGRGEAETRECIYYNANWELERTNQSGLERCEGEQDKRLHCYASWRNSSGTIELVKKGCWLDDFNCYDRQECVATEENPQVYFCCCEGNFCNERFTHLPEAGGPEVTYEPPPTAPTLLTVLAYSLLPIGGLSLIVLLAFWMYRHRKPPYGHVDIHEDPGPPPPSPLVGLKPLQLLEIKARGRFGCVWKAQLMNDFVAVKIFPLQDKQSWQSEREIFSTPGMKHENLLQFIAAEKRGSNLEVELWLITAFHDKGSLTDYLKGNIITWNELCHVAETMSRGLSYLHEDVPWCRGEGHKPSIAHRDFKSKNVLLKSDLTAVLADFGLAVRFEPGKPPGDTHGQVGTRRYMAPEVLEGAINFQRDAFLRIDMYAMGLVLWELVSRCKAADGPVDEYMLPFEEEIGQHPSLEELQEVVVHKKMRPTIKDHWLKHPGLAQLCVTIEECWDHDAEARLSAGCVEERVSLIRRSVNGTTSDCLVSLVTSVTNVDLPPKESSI
Protocol: MCF7 cells were stimulated with GDF15 (GDF15 from isolated mammalian source or recombinant derived from E. coli purchased from Abcam and Biovision). An assay was developed for monitoring the activity of GDF15 and to investigate the dynamics of receptor(s) such as QRFPR modulation by the ligand.
Serum-starved MCF7 cells were treated with GDF15, and an in situ PLA detection assay was developed to detect the interaction between ACTRIIB and QRFPR using antibodies from two different species, thus allowing the use of Duolink secondary detection reagents. The presence of the QRFPR-ACTRIIB complex was detected in the absence of GDF15 (see FIG. 3A, indicated by arrows).

## ALFWEQHDLVYGDWTS (listed as Homo sapiens) [SEQ ID NO:18]
GDF15
  GDF15 binding to GST-fusion protein (GST-pulldown): Increased binding

## EIKYDFLYEKEHICCLEEWTS (listed as Homo sapiens) [SEQ ID NO:7]
GDF15
  GDF15 binding to GST-fusion protein (GST-pulldown): Increased binding

## GEKEYDDVTIK [synthetic peptide derived from extracellular domain 4 of QRFPR]
QRFPR [1]
  GDF15-induced RAB11-QRFPR double positive endosomes: substantially reduced
QRFPR [2]
  level of QRFPR detected at the cell surface: restore the level of QRFPR detected at the cell surface to the same level as control cells
QRFPR [3]
  QRFPR at the cell surface: reversed the removal of QRFPR from the cell surface
QRFPR [4]
  P518 induced ACTRIIB levels: not affected
QRFPR [4]; listed as QRFPR receptor fragment
  P518 induced ACTRIIB levels: slight increase of ACTRIIB

B1: AP1 (control protein): AAAQEADGARSAVVAAGGGSSGQVTSNGSIGRDPPAETQPQNPPAQPAPNAGGGGSGGGGSGGGGS-Fc mouse IgG1 (Fc fusion, not shown: a dimerising Fc or GST)
chain: AAAQEADGARSAVVAAGGGSSGQVTSNGSIGRDPPAETQPQNPPAQPAPNAGGGGSGGGGSGGGGS
notes: also called control polypeptide
[5]
  binding result: no binding

B2: endogenous GDF15 (in MCF-7 cells treated with Sulindac sulphide and in human tumour tissue arrays) (ligand, UniProt Q99988 197-308, looked up)
chain: ARNGDHCPLGPGRCCRLHTVRASLEDLGWADWVLSPREVQVTMCIGACPSQFRAANMHAQIKTSLHRLKPDTVPAPCCVPASYNPMVLIQKTDTGVSLQTYDDLLAKDCHCI
notes: Detected in complex with receptors by in situ PLA
[6]
  binding result: binds
[7]
  binding result: binds

## B3
ACTRIIB
  binding result: binds
